# Assay: soluble on expression in E. coli; label from the status in PepcDB or PDB records
row,Sequence,soluble on expression in E. coli
1,MYVYKRDGRKEPVQFDKITARISRLCYGLDPKHIDAVKVTQRIISGVYEGVTTIELDNLAAETCAYMTTVHPDYATLAARIAISNLHKQTTKQFSKVVEDLYRYVNAATGKPAPMISDDVYNIVMENKDKLNSAIVYDRDFQYSYFGFKTLERSYLLRINGQVAERPQHLIMRVALGIHGRDIEAALETYNLMSLKYFTHASPTLFNAGTPKPQMSSCFLVAMKEDSIEGIYDTLKECALISKTAGGIGLHIHNIRSTGSYIAGTNGTSNGLIPMIRVFNNTARYVDQGGNKRPGAFALYLEPWHADIFDFIDIRKNHGKEEIRARDLFPALWIPDLFMKRVEENGTWTLFSPTSAPGLSDCYGDEFEALYTRYEKEGRGKTIKAQKLWYSILEAQTETGTPFVVYKDACNRKSNQKNLGVIKSSNLCCEIVEYSAPDETAVCNLASVALPAFIETSEDGKTSTYNFKKLHEIAKVVTRNLNRVIDRNYYPVEEARKSNMRHRPIALGVQGLADTFMLLRLPFDSEEARLLNIQIFETIYHASMEASCELAQKDGPYETFQGSPASQGILQFDMWDQKPYGMWDWDTLRKDIMKHGVRNSLTMAPMPTASTSQILGYNECFEPVTSNMYSRRVLSGEFQVVNPYLLRDLVDLGIWDEGMKQYLITQNGSIQGLPNVPQELKDLYKTVWEISQKTIINMAADRSVYIDQSHSLNLFLRAPTMGKLTSMHFYGWKKGLKTGMYYLRTQAASAAIQFTIDQKIADQATENVADISNLKRPSYMPSSASYAASDFVPAAVTANATIPSLDSSSEASREASPAPTGSHSLTKGMAELNVQESKVEVPEVPAPTKNEEKAAPIVDDEETEFDIYNSKVIACAIDNPEACEMCSG,soluble
2,NAIKESARLPELSLWEKIKAYFFTTHHAEALECIFNLYHHQELNLTPVQVRGAYIKLRALASQGCKEQFIIESQEHADKLIIKDDNGENILSIEVECHPEAFGLAKEINKS,soluble
3,NEVRFVVFHAVDTSEKQILVRSLEEAENKFAKLTQLLPDGLLLIEDDTIISANPASARLLGLNSPHELLGEELSRLFIDENTKKVFSHRLSTLISDKPFVCLTSARCGFERKVQLHADSTAILGSESQIILIQDA,not soluble
4,NEYLNNVKSKYEVQKQRIQIQNDTRYMNEIEAHYNELRRFRHDYQNMLISIDEYLKTDDLEGLQEYYQKNLAPVSNRVLKEKYNLEDLSRVKVKSIKSILFSKLSYAQSQEIEVHFDLKEPLIDITVNELDLDIALGIMLDNAIEASVGHADGEIMSAIFIEKNSTVFLIQNNVFEQLPPLWKLKEAGYSTKGKNRGIGLNSLSKIVNRNENMILETRVLGAVFLQRLTVKRVSQND,not soluble
5,NLKDVEHVVILMQENRSFDHYFGTLKGVRGFGDRMAIPLPDGQRVWHQKGSKGEILPYHFDTSTTSAQRVDGTPHTWPDAQQAWNEGRMDKWLPAKTERSLGYYKEQDIAFQFAMANAFTICDAYHCSFQGGTNPNRLFLWTGTNDPLGQHGGPVTTNDHDSNGPVEQGYTWTTYPERLQAAGITWRVYQDMADNFSDNPLIGFRQYRAAAPDSPLIVNGLSTWKLDALKRDVLANSLPQVSWIVAPAKYSEHPGPSSPIWGAEYTSWVLDALTANPEVWSKTALLVMFDENDGFFDHVAPPAAPSLNKDGTLRGKTTADATLEWHTKGDIRYRNQPYGLGPRVPMYVISPWSKGGWVNSQVFDHTSVIRFLEQRFGVMEPNISPWRRAVCGDLTSAFNFANPNNEPFPELPDTSQADAIVASQIKLPKPKPPAVAAMPKQEMGIRPARALPYELGVHARYRSGGDALSLTFANTGKAGAVFQVFDLLDSENPPKRYTVGARKRLHDSFQGDASGDYHLEVHGPNGFLRVFRGNLRRDLAERKAPLPEVRIDYEPLFGNLRVQLINRGRHPVKLTVKDNVYRQGERRTVNVPPGQRREVRYSLRSSGNWYDFSVSAQGADSFLRRFSGRMEDGRSGFSDPGMGLGTLTF,not soluble
6,NLNSIQNFGAIDILCTDKTGTLTQDKVVLEYHLNVNGEDDTRVLRHAYLNSYFQTGYKNLMDLAIIHKTEEEEAADSRLIDLSENYVKVDEIPFDFTRRRLTTVVQDNKGKTQMVTKGAVEEMLSICAFAECNGGVQPLTDDVRYRILETVDNLNDKGFRVLAIAQKSNPSPIGAFGVKDECDMVLIGYLAFLDP,not soluble
7,NLRSIIESPSFKNAESKLTVAMGYRINNEPLLMDIAKTPHALIAGATGSGKSVCINSILMSLLYKNHPEELRLLLIDPKMVELAPYNGLPHLVAPVITDVKAATQSLKWAVEEMERRYKLFAHYHVRNITAFNKKAPYDERMPKIVIVIDELADLMMMAPQEVEQSIARIAQKARACGIHMLVATQRPSV,not soluble
8,NLSSEYVKDIYAYLRQLEAAQAVRPKYLLGREVTGNMRAILIDWLVQVQMKFRLLQETMYMTVSIIDRFMQNNSVPKKMLQLVGVTAMFIASKYEEMYPPEIGDFAFVTDNTYTKHQIRQMEMKILRALNFGLGRPLPLHFLRRASKIGEVDVEQHTLAKYLMELTMLDYDMVHFPPSQIAAGAFSLALKILDNGEWTPTLQHYLSYTEESLLPVMQHLAKNVVMVNQGLTKHMTVKNKYATSKHAKISTLPQLNSALVQDLAKAVAKV,soluble
9,NNMFSRQAPHFAVTDYDGTLQLLEDGLVLQHDGNHPLALYDYLNDKELRTNLIKTQAARADSMTCRIEAVIQSFNHRMNTNRLVADK,not soluble
10,NQHLTILRNVSDRKRMEKELRESELKFRKVFNGSMDGNVLFDNQYRIIDANPLASHILGLSHEEIKQHSLLDIISAYEIENLASPARQINFDEMDNEIPFLLSSGDNRKLEFSFKRNIIQ,not soluble
11,NRNFSIQMKGTFTYAHNEVLKYDEAAGLRPALSQVGKSLNSIWGYVADGLYIDEADIANNPQSTIGNIAIAPGDVKYVDQPDASGNYDGKITSDDRVVLGYPTIPEIIYGFGPSITWKNWDFSFFFQGQARVSFMMSGFEPFGTQSKNNVLKWISDDHWSKDNQNPNARYPRLTQYNNNNNTASSSYWLRNASFLKLRNAEIGYRFKWARIYVNGSNLLTFSPFKLWDPEMGGGAGMKYPTQRTYNVGIQLTFK,not soluble
12,NVKHAFVDVQLAALPKMAYAAVDFVDYRFDNKHWKSLNEICPEVGLKPYADFAVLEVPLYLNNKLDYQVWENFIKPAIATYKALGDSTNLFASTSSSDLQNDTYFALGYPLLESNIDAIHFNQTGATLTSVPVKDRIKVKNQSFWTLN,not soluble
13,NVLLLDVTPLTLGIETFGGAFSPLIPRNTTVPVKKTEIFSTGVDGQAGVDIKVFQGERGLVRNNKLIGDLKLTGITPLPKGIPQIYVTFDIDADGIINVSAAEKSSGKQQSITVIPNSGLSEEEIAKLIEEANANRAQDNLIRQRLELISKADIMISDTENLFKRYEKLISSEKEYSNIVEDIKALRQAIKNFKANENDMSIDVNGIKKATDALQGRALKLFQSATKNQQNQGK,soluble
14,NVLYENQKQIANQFNKAISQIQESLTTTSTALGKLQDVVNQNAQALNTLVKQLSSNFGAISSVLNDILSRLDKVEAE,soluble
15,NVQEEVTCPICLELLTEPLSLDCGHSLCRACITVSNKEAVTSMGGKSSCPVCGISYSFEHLQANQHLANIVE,soluble
16,NYASHTERQILEVSPVVADEALAQALECKPGTTWLRVRMLRVEKDAAHTPLCWNDAYMLPDVGQRIVGKIPNGSGLLCRIIENEAGIAVADIKQSIGATAIEGEMASRLGVAPGTPGLEITRLYVDRANTPFLITVNTYSAHKFR,not soluble
17,NYDPFVRHSVTVKADRKTAFKTFLEGFPEWWPNNFRTTKVGAPLGVDKKGGRWYEIDEQGEEHTFGLIRKVDEPDTLVIGWRLNGFGRIDPDNSSEFTVTFVADGQKKTRVDVEHTHFDRMGTKHAKRVRNGMDKGWPTILQSFQDKIDEEGAKK,soluble
18,NYNHPFTQLGNQVFPTTPIVSGVRGRVVEVPVQANQPLKTGDILFKIDPVPFEAEVARLEAKVKEASQGALGLESDLREAEAAVLKAQADRDKAQREFSRYQRGFDRGAFTEQDLDTRRQAYKAAEAMLDVAILQQEQAQIALDSEIGGENTQVAQLLAELRKAEFNLEQTIVRAPTDGYVTQLALR,soluble
19,PAVKPVIGEVTPNSIVAEAGIESGMELKAVSGIKTPDWESVNMGLISHIGDDAMTLTLTSDSEVGAEVTKTLDLRDWKFDPETESAMHSLGFAPYTPEIYRVIKQVSEDGAAAKAGVLPEDEIIAIGGEPINDWKQVVDAVRSNPNTPIELTVLRRGIEQSLTLTPDSRELANKQVVGFAGIAPEVAEWPESYRFELQFGVFESIGKAVDKTGQVIGLTVSMLKKLIVGDVGLNNLSGPISIAKGAGATADYGL,not soluble
20,PDQCKPPQVTCRSATCAQVNWEVPLSNGTDVTEYRLEWGGVEGSMQICYCGPGLSYEIKGLSPATTYYCRVQALSVVGAGPFSEVVACVTPPS,soluble
21,PHIDIKCFPRELDEQQKAALAADITDVIIRHLNSKDSSISIALQQIQPESWQAIWDAEIAPQMEALIKKPGYSMNA,soluble
22,PIAQIHILEGRSDEQKETLIREVSEAISRSLDAPLTSVRVIITEMAKGHFGIGGELASKVRR,soluble
23,PIELLPETPSQTAGPYVHIGLALEAAGNPTRDQEIWNRLAKPDAPGEHILLLGQVYDGNGHLVRDSFLEVWQADANGEYQDAYNLENAFNSFGRTATTFDAGEWTLHTVKPGVVNNAAGVPMAPHINISLFARGINIHLHTRLYFDDEAQANAKCPVLNLIEQPQRRETLIAKRCEVDGKTAYRFDIRIQGEGETVFFDF,soluble
24,PKNKAKKNPVRFYKNNFFMLKDKVNNIYVYVYEHKKNDNYNDLYLPRDNVFPYLGRVYINNDNGFIINDVYFSSERIGVKNYYDKDNPILINKHSSEGNRSYGYEPETFAEIKFKTKLDNISKSQIEYIIEFKPYDSIVDYVGDNIKKTLREPVKIEGTFEIIKEDEAEIIRLHNADIFGLYNVESILFSSERIFSGNVFNFDYLFINGKEKINSSINGVKEFSDEFLKDKINENKNIVESYVKESKQRHWKSLMDESILNYIDNYADYYNELKEFKSFNILYYDDKTISLYKRVSKLEDLKLAEIDNMFMTFELESQKLISPYIKDFVNDSEALLKKYNAPSDFYSNIDSLIFGITDSFIIIMNEKGCGKIFIDYKNIKEYINKDHYLAYLFN,not soluble
25,PKYTKSVLKKGDKTNFPKKGDVVHCWYTGTLQDGTVFDTNIQTSAKKKKNAKPLSFKVGVGKVIRGWDEALLTMSKGEKARLEIEPEWAYGKKGQPDAKIPPNAKLTFEVELVDID,soluble
26,PLEKTVRLHSSSGTTGNPTVILHTQKDLDEWANAVARCLYMVGLRPGDIFQNSSGYGMFTGGLGFQYGAERLGMLTVPAAAGNTKRQLKFISDFGTTALHAIPSYAARMYEIMQEMGIDPRRDTKLRTLIIGAEPHSEEQRRRIEDMLGVKAYNSFGMSEMCGPGVAFECQEQNGLHIW,not soluble
27,PNIADKGSVFYHFSATSFDSVDGTRHYRVWTAVPNTTAPASGYPILYMLDGNAVMDRLDDELLKQLSEKTPPVIVAVGYQTNLPFDLNSRAYDYTPAAESRKTDLHSGRFSRKSGGSNNFRQLLETRIAPKVEQGLNIDRQRRGLWGHSYGGLFVLDSWLSSSYFRSYYSASPSLGRGYDALLSRVTAVEPLQFCTKHLAIMEGSATQGDNRETHAVGVLSKIHTTLTILKDKGVNAVFWDFPNLGHGPMFNASFRQALLDISGENANYTAGCHELSH,soluble

# Reference: the DeepSol protein solubility set
